Experimental data as given in article PMC11764276 (Molecular Therapy, 2024).
Substitutions are numbered along the chain they refer to.

B1: 2196 WT (recombinant mAb COV2-2196) (antibody, V domains shown)
VH: QMQLVQSGPEVKKPGTSVKVSCKASGFTFMSSAVQWVRQARGQRLEWIGWIVIGSGNTNYAQKFQERVTITRDMSTSTAYMELSSLRSEDTAVYYCAAPYCSSISCNDGFDIWGQGTMVTVSS
VL: not shown
notes: heavy chain of COV2-2196 (IGHV1-58); light chain of COV2-2196 (IGKV3-20); Whole human IgG (captured on Protein A, detected by anti-human Fc); HC vector with IgG VH leader (UniProt Q9Y298), LC vector with IGKV4-1 leader (UniProt P06312); also called WT 2196; COV-2196
B2: 2196_CDRL3_GP (antibody, V domains shown)
VH: B1 VH
VL: not shown
notes: Whole human IgG; The designs are said to be based on positions 95 and 95A, so the proline probably stands at 95A; also called DMAb-GP
B3: 2196_CDRL3_Q (antibody, V domains shown)
VH: B1 VH
VL: not shown
notes: Whole human IgG; also called DMAb-Q
B4: 2196 HC + 2072 LC (antibody, V domains shown)
VH: B1 VH
VL: not shown
notes: as the heavy chain of m2; light chain of antibody 2072 (IGKV3-20, clonally related to COV2-2196); Kabat numbering; also called DMAb-2196-HC + DMAb-2072-LC
B5: DMAb-2196_AFS_(AA_NT)_var3 (antibody, V domains shown)
VH: B1 VH
VL: EVVLTQSPGTLSLSPGERATLSCRASQSVSSSYLAWYQQKPGQAPRLLIFGASSRATGIPDRFSGSGSGTDFTLTITRLEPEDSAVYYCQHYGSSRGWTFGQGTKVEIK
notes: Whole human IgG; also called AFS variant var3
B6: DMAb-2196_AFS_(AA_NT)_var2 (antibody, V domains shown)
VH: B1 VH
VL: B5 VL with S28T, V29I, S31N, L34V, K40R, F50Y, T57A, T77S, S84F
notes: Whole human IgG; also called AFS variant var2
B7: 2196_CDRL1_des2 (antibody, V domains shown)
VH: B1 VH
VL: B5 VL with V2I, S28T, V29I, S31N, L34V, F50Y, T77S, S84F
notes: as the heavy chain of m2; as the light chain of m2, with the CDRL1 and CDRL1-adjacent residues of alphamod1 but residues 31 and 32 kept as in 2196 WT; Kabat numbering; Whole human IgG; also called DMAb-Des2; DMAb-2196_Des2
B8: DMAb-2196_des2_GP (antibody, V domains shown)
VH: B1 VH
VL: B5 VL with V2I, S28T, V29I, S31N, L34V, F50Y, T77S, S84F, R96G, G97P
notes: Whole human IgG; also called DMAb-Des2_GP

Assays:
[1] = target: T1, RBD (residues 334–527 of the SARS-CoV-2 spike glycoprotein) (SARS-CoV-2, wild type (Wuhan-Hu-1 / …, UniProt P0DTC2)); assay: cell-based or functional assay
[2] = target: T1, RBD (residues 334–527 of the SARS-CoV-2 …); assay: SPR; Biacore 8k; antibody captured on a Series S Protein A chip to ~200 RU or greater; 4X serially diluted RBD starting at 1,000 nM flowed at 50 uL/min, 120 s contact, 600 s dissociation; HBS-EP+ buffer; 1:1 Langmuir fitting, steady state analysis, or two-state reaction fitting; settings: both partners purified
[3] = target: T1, RBD (residues 334–527 of the SARS-CoV-2 …); assay: ELISA; plates coated with anti-his antibody, 10 ug/mL COV2_RBD-his captured; antibody from 8 ug/mL, 5X dilution series, in duplicate, 1 h at RT; anti-human-Fc-HRP detection; AUC divided by that of 2196 WT; settings: both partners purified

Binder | Kd [2] [nM] | AUC ratio to 2196 WT [3] | fold change of IC50 against 2196 WT [3] [fold] | other results
B1 | 1.8 | – | – | IC50 of neutralization of SARS-CoV-2 (USA-WA1/2020 spike) pseudovirus on HuCHOAce2 cells [1]: 0.08 ng/mL
B2 | – | > 0.975 | < 2.14 | –
B3 | – | > 0.975 | < 2.14 | –
B4 | 14.3 | – | – | –
B5 | 3.2 | – | – | IC50 of neutralization of SARS-CoV-2 pseudovirus on HuCHOAce2 cells [1]: 0.06 ng/mL
B6 | 1.6 | – | – | IC50 of neutralization of SARS-CoV-2 pseudovirus on HuCHOAce2 cells [1]: 0.05 ng/mL
B7 | – | > 0.975 | < 2.14 | –
B8 | – | – | – | binding result [2]: binds
